Source: IntAct's records for PubMed 17399790

B1: Complement factor H (Homo sapiens), P08603-2 (parent)
chain: MRLLAKIICLMLWAICVAEDCNELPPRRNTEILTGSWSDQTYPEGTQAIYKCRPGYRSLGNVIMVCRKGEWVALNPLRKCQKRPCGHPGDTPFGTFTLTGGNVFEYGVKAVYTCNEGYQLLGEINYRECDTDGWTNDIPICEVVKCLPVTAPENGKIVSSAMEPDREYHFGQAVRFVCNSGYKIEGDEEMHCSDDGFWSKEKPKCVEISCKSPDVINGSPISQKIIYKENERFQYKCNMGYEYSERGDAVCTESGWRPLPSCEEKSCDNPYIPNGDYSPLRIKHRTGDEITYQCRNGFYPATRGNTAKCTSTGWIPAPRCTLKPCDYPDIKHGGLYHENMRRPYFPVAVGKYYSYYCDEHFETPSGSYWDHIHCTQDGWSPAVPCLRKCYFPYLENGYNQNYGRKFVQGKSIDVACHPGYALPKAQTTVTCMENGWSPTPRCIRVSFTL
partner: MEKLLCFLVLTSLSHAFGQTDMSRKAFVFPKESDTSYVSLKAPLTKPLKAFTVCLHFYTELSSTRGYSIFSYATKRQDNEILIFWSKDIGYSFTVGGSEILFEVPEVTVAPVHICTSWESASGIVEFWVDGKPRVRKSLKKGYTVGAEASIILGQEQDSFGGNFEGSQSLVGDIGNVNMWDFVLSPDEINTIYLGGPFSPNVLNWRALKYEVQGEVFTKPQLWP
B2: Complement factor H (Homo sapiens), P08603-1 (parent)
chain: MRLLAKIICLMLWAICVAEDCNELPPRRNTEILTGSWSDQTYPEGTQAIYKCRPGYRSLGNVIMVCRKGEWVALNPLRKCQKRPCGHPGDTPFGTFTLTGGNVFEYGVKAVYTCNEGYQLLGEINYRECDTDGWTNDIPICEVVKCLPVTAPENGKIVSSAMEPDREYHFGQAVRFVCNSGYKIEGDEEMHCSDDGFWSKEKPKCVEISCKSPDVINGSPISQKIIYKENERFQYKCNMGYEYSERGDAVCTESGWRPLPSCEEKSCDNPYIPNGDYSPLRIKHRTGDEITYQCRNGFYPATRGNTAKCTSTGWIPAPRCTLKPCDYPDIKHGGLYHENMRRPYFPVAVGKYYSYYCDEHFETPSGSYWDHIHCTQDGWSPAVPCLRKCYFPYLENGYNQNYGRKFVQGKSIDVACHPGYALPKAQTTVTCMENGWSPTPRCIRVKTCSKSSIDIENGFISESQYTYALKEKAKYQCKLGYVTADGETSGSITCGKDGWSAQPTCIKSCDIPVFMNARTKNDFTWFKLNDTLDYECHDGYESNTGSTTGSIVCGYNGWSDLPICYERECELPKIDVHLVPDRKKDQYKVGEVLKFSCKPGFTIVGPNSVQCYHFGLSPDLPICKEQVQSCGPPPELLNGNVKEKTKEEYGHSEVVEYYCNPRFLMKGPNKIQCVDGEWTTLPVCIVEESTCGDIPELEHGWAQLSSPPYYYGDSVEFNCSESFTMIGHRSITCIHGVWTQLPQCVAIDKLKKCKSSNLIILEEHLKNKKEFDHNSNIRYRCRGKEGWIHTVCINGRWDPEVNCSMAQIQLCPPPPQIPNSHNMTTTLNYRDGEKVSVLCQENYLIQEGEEITCKDGRWQSIPLCVEKIPCSQPPQIEHGTINSSRSSQESYAHGTKLSYTCEGGFRISEENETTCYMGKWSSPPQCEGLPCKSPPEISHGVVAHMSDSYQYGEEVTYKCFEGFGIDGPAIAKCLGEKWSHPPSCIKTDCLSLPSFENAIPMGEKKDVYKAGEQVTYTCATYYKMDGASNVTCINSRWTGRPTCRDTSCVNPPTVQNAYIVSRQMSKYPSGERVRYQCRSPYEMFGDEEVMCLNGNWTEPPQCKDSTGKCGPPPPIDNGDITSFPLSVYAPASSVEYQCQNLYQLEGNKRITCRNGQWSEPPKCLHPCVISREIMENYNIALRWTAKQKLYSRTGESVEFVCKRGYRLSSRSHTLRTTCWDGKLEYPTCAKR
partner: B1 partner

Variants of: B1
Details: with crp_human CRP

| Variant | effect of a mutation on the interaction |
| --- | --- |
| Y402H | decreasing interaction strength |

Variants of: B2
Details: with crp_human CRP

| Variant | effect of a mutation on the interaction |
| --- | --- |
| Y402H | decreasing interaction strength |
